Source: the supplement of paper PMC11246515
± gives the standard deviation of the averaged measurements.

Assay: total protein half-life in vivo (active degradation + dilution); higher = more stable protein
[1] = E. coli NCM3722 delta-clpP delta-lon delta-hslV, growth: N-lim chemostat, doubling time 6 h
[2] = E. coli NCM3722 delta-lon, growth: N-lim chemostat, doubling time 6 h
[3] = E. coli NCM3722 delta-smpB, growth: N-lim chemostat, doubling time 6 h
[4] = wild type E. coli NCM3722, growth: C-lim chemostat, doubling time 3 h
[5] = wild type E. coli NCM3722, growth: C-lim chemostat, doubling time 6 h
[6] = wild type E. coli NCM3722, growth: C-lim chemostat, doubling time 12 h
[7] = wild type E. coli NCM3722, growth: N-lim chemostat, doubling time 6 h
[8] = wild type E. coli NCM3722, growth: N-lim chemostat, doubling time 12 h
[9] = wild type E. coli NCM3722, growth: P-lim chemostat, doubling time 6 h
[10] = wild type E. coli NCM3722, growth: P-lim chemostat, doubling time 12 h
[11] = E. coli NCM3722 delta-clpP, growth: N-lim chemostat, doubling time 6 h
[12] = E. coli NCM3722 delta-hslV, growth: N-lim chemostat, doubling time 6 h

| Sequence | total protein half-life in vivo [1] [h] | total protein half-life in vivo [2] [h] | total protein half-life in vivo [3] [h] | total protein half-life in vivo [4] [h] | total protein half-life in vivo [5] [h] | total protein half-life in vivo [6] [h] | total protein half-life in vivo [7] [h] | total protein half-life in vivo [8] [h] | total protein half-life in vivo [9] [h] | total protein half-life in vivo [10] [h] | total protein half-life in vivo [11] [h] | total protein half-life in vivo [12] [h] |
| --- | --- | --- | --- | --- | --- | --- | --- | --- | --- | --- | --- | --- |
| MDQKLLTDFRSELLDSRFGAKAISTIAESKRFPLHEMRDDVAFQIINDELYLDGNARQNLATFCQTWDDENVHKLMDLSINKNWIDKEEYPQSAAIDLRCVNMVADLWHAPAPKNGQAVGTNTIGSSEACMLGGMAMKWRWRKRMEAAGKPTDKPNLVCGPVQICWHKFARYWDVELREIPMRPGQLFMDPKRMIEACDENTIGVVPTFGVTYTGNYEFPQPLHDALDKFQADTGIDIDMHIDAASGGFLAPFVAPDIVWDFRLPRVKSISASGHKFGLAPLGCGWVIWRDEEALPQELVFNVDYLGGQIGTFAINFSRPAGQVIAQYYEFLRLGREGYTKVQNASYQVAAYLADEIAKLGPYEFICTGRPDEGIPAVCFKLKDGEDPGYTLYDLSERLRLRGWQVPAFTLGGEATDIVVMRIMCRRGFEMDFAELLLEDYKASLKYLSDHPKLQGIAQQNSFKHT | 5.86 ± 0.071 | 5.71 ± 0.19 | 5.91 ± 0.41 | 3.71 | 6.55 ± 0.6 | > 16 | 5.53 | 9.35 ± 0.68 | 6.024 ± 0.042 | 12.1 ± 1.2 |  |  |
| MDQTYSLESFLNHVQKRDPNQTEFAQAVREVMTTLWPFLEQNPKYRQMSLLERLVEPERVIQFRVVWVDDRNQIQVNRAWRVQFSSAIGPYKGGMRFHPSVNLSILKFLGFEQTFKNALTTLPMGGGKGGSDFDPKGKSEGEVMRFCQALMTELYRHLGADTDVPAGDIGVGGREVGFMAGMMKKLSNNTACVFTGKGLSFGGSLIRPEATGYGLVYFTEAMLKRHGMGFEGMRVSVSGSGNVAQYAIEKAMEFGARVITASDSSGTVVDESGFTKEKLARLIEIKASRDGRVADYAKEFGLVYLEGQQPWSLPVDIALPCATQNELDVDAAHQLIANGVKAVAEGANMPTTIEATELFQQAGVLFAPGKAANAGGVATSGLEMAQNAARLGWKAEKVDARLHHIMLDIHHACVEHGGEGEQTNYVQGANIAGFVKVADAMLAQGVI | 3.53 ± 0.36 | 2.13 ± 0.14 | 2.14 ± 0.08 | 2.94 ± 0.19 | 4.66 ± 0.28 | 7.29 ± 0.52 | 1.88 ± 0.073 | 2.61 ± 0.4 | 5.35 ± 0.14 | 9.48 ± 0.6 | 1.97 ± 0.1 | 1.8 ± 0.11 |
| MDRIIQSPGKYIQGADVINRLGEYLKPLAERWLVVGDKFVLGFAQSTVEKSFKDAGLVVEIAPFGGECSQNEIDRLRGIAETAQCGAILGIGGGKTLDTAKALAHFMGVPVAIAPTIASTDAPCSALSVIYTDEGEFDRYLLLPNNPNMVIVDTKIVAGAPARLLAAGIGDALATWFEARACSRSGATTMAGGKCTQAALALAELCYNTLLEEGEKAMLAAEQHVVTPALERVIEANTYLSGVGFESGGLAAAHAVHNGLTAIPDAHHYYHGEKVAFGTLTQLVLENAPVEEIETVAALSHAVGLPITLAQLDIKEDVPAKMRIVAEAACAEGETIHNMPGGATPDQVYAALLVADQYGQRFLQEWE [P0A9S5] | 4.72 ± 0.17 | 4.432 ± 0.034 | 3.52 ± 0.49 | 3.07 ± 0.084 | 5.75 ± 0.4 | 11.7 ± 0.7 | 4.8 ± 0.91 | 6.5 ± 0.44 | 6.33 ± 0.13 | 13 ± 0.35 | 4.2 ± 0.78 | 4.13 ± 0.15 |
| MDRVLHFVLALAVVAILALLVSSDRKKIRIRYVIQLLVIEVLLAWFFLNSDVGLGFVKGFSEMFEKLLGFANEGTNFVFGSMNDQGLAFFFLKVLCPIVFISALIGILQHIRVLPVIIRAIGFLLSKVNGMGKLESFNAVSSLILGQSENFIAYKDILGKISRNRMYTMAATAMSTVSMSIVGAYMTMLEPKYVVAALVLNMFSTFIVLSLINPYRVDASEENIQMSNLHEGQSFFEMLGEYILAGFKVAIIVAAMLIGFIALIAALNALFATVTGWFGYSISFQGILGYIFYPIAWVMGVPSSEALQVGSIMATKLVSNEFVAMMDLQKIASTLSPRAEGIISVFLVSFANFSSIGIIAGAVKGLNEEQGNVVSRFGLKLVYGSTLVSVLSASIAALVL [P0AFF2] | 7.07 ± 0.54 | 5.82 ± 0.35 | 6.04 ± 0.57 | 3.61 ± 0.038 | 6.32 ± 0.029 |  | 6.36 ± 0.65 | 9.54 ± 3.4 | 5.57 | 13 ± 0.8 | 6.45 ± 0.078 | 6.09 ± 0.15 |
| MDSIHGHEVLNMMIESGEQYTHASLEAAIKARFGEQARFHTCSAEGMTAGELVAFLAAKGKFIPSKDGFSTDQSKICRH |  |  |  |  | 5.53 |  |  |  |  |  |  |  |
| MDSLNLNKHISGQFNAELESIRTQVMTMGGMVEQQLSDAITAMHNQDSDLAKRVIEGDKNVNMMEVAIDEACVRIIAKRQPTASDLRLVMVISKTIAELERIGDVADKICRTALEKFSQQHQPLLVSLESLGRHTIQMLHDVLDAFARMDIDEAVRIYREDKKVDQEYEGIVRQLMTYMMEDSRTIPSVLTALFCARSIERIGDRCQNICEFIFYYVKGQDFRHVGGDELDKLLAGKDSDK [P0A9K7] | 4.61 ± 0.4 | 4.81 ± 0.26 | 4.01 ± 0.1 | 2.88 ± 0.12 | 5.04 ± 0.29 | 9.47 ± 0.65 | 4.09 ± 0.23 | 6.41 ± 0.26 | 5.17 ± 0.13 | 10.8 ± 0.029 | 4.64 ± 0.5 | 4.2 ± 0.34 |
| MDSQRNLLVIALLFVSFMIWQAWEQDKNPQPQAQQTTQTTTTAAGSAADQGVPASGQGKLISVKTDVLDLTINTRGGDVEQALLPAYPKELNSTQPFQLLETSPQFIYQAQSGLTGRDGPDNPANGPRPLYNVEKDAYVLAEGQNELQVPMTYTDAAGNTFTKTFVLKRGDYAVNVNYNVQNAGEKPLEISSFGQLKQSITLPPHLDTGSSNFALHTFRGAAYSTPDEKYEKYKFDTIADNENLNISSKGGWVAMLQQYFATAWIPHNDGTNNFYTANLGNGIAAIGYKSQPVLVQPGQTGAMNSTLWVGPEIQDKMAAVAPHLDLTVDYGWLWFISQPLFKLLKWIHSFVGNWGFSIIIITFIVRGIMYPLTKAQYTSMAKMRMLQPKIQAMRERLGDDKQRISQEMMALYKAEKVNPLGGCFPLLIQMPIFLALYYMLMGSVELRQAPFALWIHDLSAQDPYYILPILMGVTMFFIQKMSPTTVTDPMQQKIMTFMPVIFTVFFLWFPSGLVLYYIVSNLVTIIQQQLIYRGLEKRGLHSREKKKS | 6.9 ± 1.3 | 6.29 ± 0.36 | 6.08 ± 0.42 | 3.2 ± 0.74 | 6.37 ± 1.8 |  | 6.08 ± 0.64 | 12.2 ± 0.55 | 6.66 ± 0.93 | 12.6 ± 0.7 | 6.01 ± 0.51 | 6.03 ± 0.043 |
| MDTSLAEEVQQTMATLAPNRFFFMSPYRSFTTSGCFARFDEPAVNGDSPDSPFQQKLAALFADAKAQGIKNPVMVGAIPFDPRQPSSLYIPESWQSFSRQEKQASARRFTRSQSLNVVERQAIPEQTTFEQMVARAAALTATPQVDKVVLSRLIDITTDAAIDSGVLLERLIAQNPVSYNFHVPLADGGVLLGASPELLLRKDGERFSSIPLAGSARRQPDEVLDREAGNRLLASEKDRHEHELVTQAMKEVLRERSSELHVPSSPQLITTPTLWHLATPFEGKANSQENALTLACLLHPTPALSGFPHQAATQVIAELEPFDRELFGGIVGWCDSEGNGEWVVTIRCAKLRENQVRLFAGAGIVPASSPLGEWRETGVKLSTMLNVFGLH [P0AEJ2] |  |  |  | 2.43 | 2.54 |  |  |  |  |  |  |  |
| MDVTAKYELIGLMAYPIRHSLSPEMQNKALEKAGLPFTYMAFEVDNDSFPGAIEGLKALKMRGTGVSMPNKQLACEYVDELTPAAKLVGAINTIVNDDGYLRGYNTDGTGHIRAIKESGFDIKGKTMVLLGAGGASTAIGAQGAIEGLKEIKLFNRRDEFFDKALAFAQRVNENTDCVVTVTDLADQQAFAEALASADILTNGTKVGMKPLENESLVNDISLLHPGLLVTECVYNPHMTKLLQQAQQAGCKTIDGYGMLLWQGAEQFTLWTGKDFPLEYVKQVMGFGA [P0A6D5] | 4.77 |  |  |  |  |  |  |  |  |  |  |  |
